The record followed here is publication PMC7396682, “Effect of a Novel Alpha/Beta Hydrolase Domain Protein on Tolerance of K. marxianus to Lignocellulosic Biomass Derived Inhibitors” (Frontiers in Bioengineering and Biotechnology, 2020).

Assay in all cases: purified protein
What all share (assay type): biochemical, Kluyveromyces marxianus

Substrate in data set [1]: CCCC(=O)Oc1ccc([N+](=O)[O-])cc1
Particulars: 50 mM Tris-HCl, pH 8.0, 37 °C.

Substrate in data set [2]: CCCCCCCCCC(=O)SCCNC(=O)CCNC(=O)[C@H](O)C(C)(C)COP(=O)(O)OP(=O)(O)OC[C@H]1O[C@@H](n2cnc3c(N)ncnc32)[C@H](O)[C@@H]1OP(=O)(O)O
Particulars: 100 mM HEPES, pH 8.0, 37 °C, 1 mM DTNB.

Substrate in data set [3]: CC(=O)Oc1ccc([N+](=O)[O-])cc1
The settings on record: 50 mM Tris-HCl, pH 8.0, 37 °C.

Substrate in data set [4]: CC(C)(COP(=O)(O)OP(=O)(O)OC[C@H]1O[C@@H](n2cnc3c(N)ncnc32)[C@H](O)[C@@H]1OP(=O)(O)O)[C@@H](O)C(=O)NCCC(=O)NCCSC(=O)CCC(=O)O
The settings on record: 100 mM HEPES, pH 8.0, 37 °C, 1 mM DTNB.

Substrate in data set [5]: CCCC(=O)SCCNC(=O)CCNC(=O)[C@H](O)C(C)(C)COP(=O)(O)OP(=O)(O)OC[C@H]1O[C@@H](n2cnc3c(N)ncnc32)[C@H](O)[C@@H]1OP(=O)(O)O
The settings on record: 100 mM HEPES, pH 8.0, 37 °C, 1 mM DTNB.

B1: KmYME (Kluyveromyces marxianus DMKU3-1042) (protein)
chain: MLLAYTVRPSNWSFTRRAYSATARAFNQQKGLLPLPIKETVDMAYDLHLPERSVIGKMPYHSPEPIIFYHGLLGSKRNYRHDCKKLATALQTPVYTVDIRNHGSSEHALPFDYNTLVNDLVHFAETHSLGKVNLVGYSLGAKVAMLACLKHPERFSAACIIDNSPEEQPHIKPLLTALVKSCVKLLDHHNVRADDKLWRHKASEALKKYIPDAGIRYYLLSNIINNPRVVEYRSPVINYDDGMLHFKNPVRHMMDFVTKEVAAWPTQELEGKQFLGPVNFIKATRSDFINPKSLQAINQYFPYHNIDEINATHFILNERPQEYLRAVTDFFKVTRYQLEKKREQDLAKIDQLNASESLKSARD
notes: expressed from pWD010 (T7 promoter) in E. coli BL21(DE3), nickel-column purified (tag not described); native full length 360 aa
Turning to B1, the Km (usually the substrate concentration at which the rate is half of its maximum) in “purified protein [1]” came out at 258.41 ± 5.97 µM; in the data set “purified protein [2]”, 329.20 ± 12.75 µM; in the data set “purified protein [3]”, 189.73 ± 12.20 µM; in the data set “purified protein [4]”, 387.58 ± 3.42 µM; in the data set “purified protein [5]”, 468.44 ± 20.62 µM.

B2: KmYME (Kluyveromyces marxianus DMKU3-1042; L139M/Y137H) (protein)
chain: MLLAYTVRPSNWSFTRRAYSATARAFNQQKGLLPLPIKETVDMAYDLHLPERSVIGKMPYHSPEPIIFYHGLLGSKRNYRHDCKKLATALQTPVYTVDIRNHGSSEHALPFDYNTLVNDLVHFAETHSLGKVNLVGHSMGAKVAMLACLKHPERFSAACIIDNSPEEQPHIKPLLTALVKSCVKLLDHHNVRADDKLWRHKASEALKKYIPDAGIRYYLLSNIINNPRVVEYRSPVINYDDGMLHFKNPVRHMMDFVTKEVAAWPTQELEGKQFLGPVNFIKATRSDFINPKSLQAINQYFPYHNIDEINATHFILNERPQEYLRAVTDFFKVTRYQLEKKREQDLAKIDQLNASESLKSARD
notes: as for B1
As to B2, the Km is 685.66 ± 34.83 µM in the data set “purified protein [1]”; 449.88 ± 87.78 µM in “purified protein [2]”; 193.89 ± 10.00 µM in the data set “purified protein [3]”; 1022.84 ± 145.83 µM in the data set “purified protein [4]”; 1138.20 ± 185.83 µM in the data set “purified protein [5]”.
